Measurements published in patent publication US20100196398A1.

Target: human CD105 (human) (UniProt P17813)
Assay: FACS titration of FITC-labeled SN6 on HUVEC cells

Chain of human CD105 (human) (P17813 26-658): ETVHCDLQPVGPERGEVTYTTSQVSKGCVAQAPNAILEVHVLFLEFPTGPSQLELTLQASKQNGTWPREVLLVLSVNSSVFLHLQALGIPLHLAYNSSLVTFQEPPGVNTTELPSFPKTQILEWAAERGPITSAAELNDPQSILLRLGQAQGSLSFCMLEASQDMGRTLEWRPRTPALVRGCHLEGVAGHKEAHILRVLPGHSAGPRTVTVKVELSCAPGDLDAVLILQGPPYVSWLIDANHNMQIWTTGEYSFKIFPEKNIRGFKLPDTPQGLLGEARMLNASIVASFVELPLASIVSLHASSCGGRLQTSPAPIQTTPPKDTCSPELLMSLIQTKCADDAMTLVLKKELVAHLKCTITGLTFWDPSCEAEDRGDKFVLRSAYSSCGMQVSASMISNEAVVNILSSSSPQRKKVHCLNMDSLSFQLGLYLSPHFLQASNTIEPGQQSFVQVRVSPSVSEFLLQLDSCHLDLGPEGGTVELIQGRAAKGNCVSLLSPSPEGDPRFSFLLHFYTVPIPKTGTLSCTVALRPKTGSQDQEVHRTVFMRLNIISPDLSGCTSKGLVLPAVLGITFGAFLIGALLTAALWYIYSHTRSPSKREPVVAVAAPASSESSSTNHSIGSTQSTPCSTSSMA

EC50: 2 µg/mL
Substance: SN6 antibody (Abcam)
